Data from the DeepSol protein solubility set.

Assay: soluble on expression in E. coli; label from the status in PepcDB or PDB records

Row | Sequence | soluble on expression in E. coli
1 | MGSDKIHHHHHHMKVALRKTIGERLLELAKQDEKIVVVTSDARGSAAIADFFKVFPERSIEVGIAEQTAAGVAAGLALCGKKAWVFGPACFYSARNLEQIKNDIAYSDANVKIVAVSGGVSYGPLGSTHHALHDVAVMRAIPNLKVLLPSDAVLAAAILEQLLKDEKPVYMRTGRNPVPVIYSRDEKFEVGRAITLKEGNDITIIATGEVVWRALEAAKILEKEGISARVIDMFTVKPLDEEAVFRAARETGRIVTVEEHSIFGGLGGAVAEFLSQNLPTPMKILGIPDEYPVTGTQDEVLKHYGLAPEGIAKTVLEWFKEGN | not soluble
2 | MVFYGQPVTDDSTIRLSGQGVNTAFSVNLQAINHDVQKIAFTATCDGNQTLSQLGNLSIQVELNGSVLMKGDVETQGRQEAALILGELYRRNTEWKFRFVAQGFNGGLKPLAEHFGVVVEDEPAAPTPVPTPVSTPAPTAPPVAKPINLSKVSLTKEKPVISLTKRDDFGEIRVNLNWHRGGGAPAKGFLQGIFNSNKGIDLDLGAFVALNDGSRGVIQALGNNFGSYHSEPYVQLQGDDRTGDVSDGEWMHINGREWKHVKEVLIFAFIYEGVPSWGSTDGIVTINVPGQAPIETQMNEGNDRKNMCAVARLVNESGNIKVERINRYFSGHKEMDEAFGWGFRWKAGSK | not soluble
3 | MPAGHEDIGLPQDDEAFMRYRERRIQELCGKVEEVVSEKELIEKTKSLRMIVHFYKPEFKRCKTMDKGLEEVKDCFPGIRFYRVNAEICPVVARKLEIRVLPFLGFFKDGYFVDQVVGFEKLGGDSVEPEVLKKRILDSNIFKPISSI | not soluble
4 | MSPLPIIEVMPKLLSGITNSPQLILKAAPGAGKSTYFPLQLLQAGGFHGKIIMLEPRRLAARNIARYLAQQLGEEVGQRVGYRVRGENRVSRATQLEIVTEGIMTRMLQNDPELDGVDVLIFDEFHERSIHADTALALALEVQSALREDLKIVVMSATLDQQALQNLLPQASYVESQGRGFPIEIRYQPLRSDEPLVTAMQRQIRHLLQHETGSLLAFLPGAASINQLTEQLSDLASEVEICPLYGQMEFAAQQRAIAPTAAGRRKVVLATNIAETSLTIEGIRIVLDSGLERSARFDLKTGITRLEQVRIAQSSAEQRAGRAGRLEPGICVRLYSEAQLKQQPWVPEPEMLHTDLAPLALELAQWGAQPSDLAWLNLPPSSAFAQAQQLLQRLGLLDARTQITAAGKEAHLLGVEPRIAAMLLSADRLGESALQSALALTVLLEEPERQVIDVQHSLHRWQQGRHPKQKLLIQRAQSLAHKLDTAFSLSSVDSAWLPLVACLAFPDRIAQQRGQQTGQFLLANGHGAWLAVEDRLSAADYLVALDLMRGQTQASQIFSALELDIHALERVLPALISRVEQVDWDEKAGRLSAEAQWRIDQLVLRREKLPEPDKQKMTQALLSYVRRKGLTVLQWSEDASEWLARARCAAEWLPEEAWPALDDETLLARLELWLEPYLAGVTSVKGLQSVSVLQALKHYLGWELSQQLDEWLPTHHLLPTGNHKKIRYQLGMEPTLSVRMQEVFGEQSSPRVAKGTRAVVMELLSPAQRPLQVTRDLASFWAGAYKEVQKEMKGRYPKHVWPDDPANHVATSKTKRQLNA | soluble
5 | MGSDKIHHHHHHAQRVITASGKYITKNIKVTRFDQIYLKGSPTIEYTQSPGASKVQIAGSDNLVDLVECRVEGSTLIVNMKSRTNISYGKEGRLKILVSSPMLKSASLQGSGDIHLGSLKVEGLDVSLTGSGDIVAENITCNSDFSALLKGSGDIDVKGQLRAKSVNLNLQGSGDLKVAGVTGSEISAMLQGSGDLKVGSTNITSTVMAKLSGSGDMDVLDIRANSVSGQLDGSGDMTLSGSACNATLVLNRSGELSARKLDAENVTAHVNGSGEISCTATKTLETNIQGSGEISYKGNPSIRSTGKNHLNRL | not soluble
6 | MGSDKIHHHHHHMIIVAGTPGAGKTSVMTHTIKQLLNKGNKPAVVKIDCLYTDDDTRYGKLKIPTLVGLSKDMCPDHFAIYNLEEMAEWAEKEGVDTLIIETAGLCHRCAPYTKNSLGICVIDATSGPNTPRKVGPFLTSADVVAITKGDIISQAEREVFRERVLEMNPKCTIYDVNGLSGQGCAEISEEIMEAKDIVDLENEELRHNAPLCVCTLCVGETKVAKKHHRGVLRRIDGFTKYVGE | not soluble
7 | MGSDKIHHHHHHLLLEQTNFRKEVNNIKIFNERNMNNLEYIIPECYADITNIYNNVIVMENIKGLTYNDVKDLDIEKKDIFGKLLMKFGLISILYTSAVHCDIHPGNLFFYINEDVKDKPKYQLGLIDFGIVSFPNRENQNFYYTFFKNIQIDKDFSKLEDVLRCILCEKDKFKNLDTIKKRLLKETIERNIIETDNKYDLDFFLKLSYTINVYGFTFTKEFNQICLSLQVVENLLKNLLLDIRKTQDEIIETFNNINKLIT | not soluble
8 | MLIRRKIMQYNDMSKEELLVLKESLNKEYAEAKAKGLALDMSRGKPSAKQLDVSLGLLDTINSSSDLKSLDGTDCRNYGVLDGIPEAKKLMADMMGTTPDHVIVYGNASLNIMYDQISRAYTHGILGNTPWCKLDKVKFLCPVPGYDRHFAITERFGIEMINIPMSESGPDMGMVEEYVSKDASVKGIWCVPKYSNPQGYTYSEETVKRMAALKPAAEDFRIFWDNAYVIHDLYDDNKDEIADIISECEKAGNPDMVFEFASTSKVSFPGSGIAALATSANNIADIKKQLTIQTIGHDKLNQLRHVRFFKDINGLKEHMRKHAEFIRPKFEAVESVLEEELSGLGIGSWTEPKGGYFISFDAMDGCAKAIVAKCKEAGVKLTGAGATFPYGKDPKDSNIRIAPSFPTPEEMKQAADLFVLCVKLVSVEKLLENK | not soluble
9 | LTSKLVQAGANVKVIMTESACRFVSPLTFQALSRHEVYTDTFKEQNPSVISHIDAADWADLIIVAPATANVIGKLANGIADDMLTTTLLAATAPVWIAPAMNVHMYDHPAVKRNISVLYQDGYCFIEPSEGYLACGYVGKGRLEEPENIVKLAEKHFAEETSAPLEGKHVVITAGPTREAIDPVRFFTNKSTGKMGYALAEAAVQLGARVILISGPVSLDQPKGLAEFIPVQSAADMREAVLSVYDASDIVIKTAAVADFTPKTVFDHKMKKQDGGMTLELKRTVDILKELGEKKKEQILVGFAAETQDIEHYARKKLAAKNLDLIVANDVKANGAGFGADTNIVTIFFKDGHKRELPIMSKLDVSFEILQEIAALSKQTGERS | not soluble
10 | MGSDKIHHHHHHMDSVKLIDLSEMRDILRSVNPFPGRWSFITSVEYMLDSRLYVDSIGDDAKVVRATLGPHDRNILDFGTGSGVFAIALRQVLPELDISAVDTTDNKSQSHPDFSDGQAAAHQRLIYPPLAERFRISFNHYNGHLLPYPDGSFDAISAYAVIEHIPHEELDAAMREIARVLKDDGKLFVFKMPRKLALVEHVAGILGLGRHDTLYGDGEALRLFRSYGWKVEKTFKSNMVFDYPGWLTNRLYHPLKLIDRILYWSPWRLFAHHNNFVLRKLERPQL | not soluble
11 | MGVKRKKMGKVAGFTEWTAEDLEAFRARWPIGTAQRLALELYQWTGARCVDVIRLGPQMVGRDGVLTYVQQKTGNPAHVPWTCPAFGLEEQRADLMRCLPVGSPVYMLTEYGKPRTQKGVSQWFSAAAREAGLESRTAHGLRKYRMNALAEHGASVLVMQSWVGHTTLLEVQEYTRRADRRRVISGGHAAALEHHHHHH | not soluble
12 | MSCHTSCIDHTSALIHCADEVFEKPLPHLFEAAVFLMGFTLWGKLEFNQRDGFLDCPHGDRVCGSGMMSKVDILQLTGHFFTNFNGRDYIENIQNLFDNQLASYHIRNQFLIGIQRLGHRKLLIAF | not soluble
13 | MSLTKSYAEEQKRSVSEKLLKEKKLSLILDLDGTIVFTNPELCIPLESEEEPITPEQGFYFEIPEQNAKVFIRFRDGIVTFMEKVSKLYDIHVVTLGQKEYAFAIVNAINKLRNIPFITGDLVTAEDCSSVIVCDEKDTNDGLIDREETNERRSVKRSIPTMGKEEMQVIVDDRIDVWDNKNVVQICEYVPSTNQVDTELVRVTEVLQNIYTKFYDEHIEDVKEILHLFRKKILENKNLYFNREGHHHHHH | soluble
14 | MQDRIFAFTPKGSLFQLPKGATPIDFAFAVHTNLGAQAVGAKINGRHVPLRTPLGNGDVVEIIKSRTSEPQLEHHHHHH | not soluble
15 | MSLATIKDIAKEVGCSISTVSRVLNNDPTLSVGDETRSRIFEVAEEIGYRKKTLKTLVKNIAFLYWLTDNEELEDVYFQTMRVEIEKKARENNIELTTYKLEGGIEKIPLDIDGFIAVGSFMNRELEYLRELTPHGVFIDSTPDPAHYDSVRPDLAQITRQAVEVLVEQGHEKIGFIGGTYHNLDTDAEEMDGRERAFRQTMEERDLLREDFIFCRRGFSVDNGHYLMNQAVEQLGEELPTAFYVAADPIAVGCLQVLNEQQIEIPKRVSLISVNDTSISKYVSPPLTTFHIDLEEICQNAIQLLLERVLKKRNIVKTVYIGAELITRKSTEGHHHHHH | soluble
16 | MGSDKIHHHHHHMTAPTAQSMQAQPIHARLMNGEVLSQDDATAFMREVMSGDMSGVRMAAALAALRVRGETPEEIAGFAQAMRESAVTVKVRPRDVLMDVVGTGGDGAHTFNISTTTAFVLAGAGVPIAKHGNRAASSRAGSADVLEALGVNLDASPEVIQEAIDTLGVGFMFARNYHPALRHAAPVRSDLAARTVFNILGPLSNPAGATHLVVGVFRADLTRTLAEALRHLGAKGATVVYGDGLDEFTVCGPNTVSGLRDGEIIDRTMHPEEFGVDLHPKTAIVGGSPAENAEITHALLTGGGTPAQKDIVALNAGAALRTAGRVGTIREGVEQAREVMKGGQGWEMLQKYGALTKR | not soluble
17 | GAMGSKISNIFEDVEFCVMSGTDSQPKPDLENRIAEFGGYIVQNPGPDTYCVIAGSENIRVKNIILSNKHDVVKPAWLLECFKTKSFVPWQPRFMIHMCPSTKEHFAREYDCYGDSYFIDTDLNQLKEVFSGIKNSNEQTPEEMASLIADLEYRYSWDCSPLSMFRRHTVYLDSYAVINDLSTKNEGTRLAIKALELRFHGAKVVSCLAEGVSHVIIGEDHSRVADFKAFRRTFKRKFKILKESWVTDSIDKCELQEENQYLI | soluble
18 | MSSPKKNFKKPQPKTENQKQALNEERIAELKKSRILGKNRPFKKMIYVDTKAQRKQKHENVAFLKTLQENKESDVPKKRRGRKPKHAPLKEKNNLKLFDILEGSLKSHTENDDTNKVISLLVEVWEKKNKKKDNNSLSNKDIVNVLSKFELPDDEIIFVLDELR | soluble
19 | MNKKDFLDFLNQNILILDGATGTELQKRGMPGGVCPEMWVIENPDVIMDIQKDYINAGSNAVYTCTFGGNRIKLSEFGLGDKVVEINKKLAQLSRKAAGEKGLVAGDLAPTGRFVRPFGDMPFEEAVDVYKEQVKGLLEGGVDFFVIETMMDIQEARAALLAVKESCDLPVCVSMTFDESGRTLTGTDSVSALIILQSLGADVVGCNCSTGPQDMIKIIREMKPYAKVPLLAKPNAGLPKLIDGKTRFDMEPEEFGSYIKEFVEAGVNLLGGCCGTSPVYIEQIRKNIEGLKPIPPQPKEICAVASARKTVFVDANEPVVVVGERINPTGKKKLQEELRQGMTSLVRQFAVEQVEKGADILDVNVGMPGIDEKETMVKVVELLSSITDAPLCLDSSSPEVLEAALRIYPGRALINSISAEKVKIEKLLPIAAKYGAAFILLPLGDAGVPKSAGERCKIVEEVFNEASKWGYTKKDVIVDGLVMTVSADQEAAVETLKVIEWCTQSFGCGTIVGLSNVSFGMPERAWINSAFLAMAIGYGLTMAILNPSSDTLMSIKMASDVLKVKDRNSKKYIEHFAALKSDKPQVVEKKDTASPVEKVYDAVVKGDRENIRKYIDDALKDGTEPSIIVDKYLIPAITHVGDLYDRKEYFLPQLIQSAETMKEAFGILEPLLKKEPVDEKGNKVKVILATVKGDIHDIGKNIVGLMLRNYGFEVYDLGKDVSAEEIVKKAKETNAPIIGLSALMTTTMLEMREVVSLVRQEGLNAKIMIGGAVVNADYAKEIGADGYSEDAYGAVKLASKLAGI | soluble
